2 molecules from publication doi:10.1101/2025.01.07.631702 (bioRxiv, 2025) can be followed below.

Series [1] concerns the target heavy-chain (HC-) FSAP (residues 24-291) (human) (UniProt Q14520). As to the kind of experiment: MST.
The series “dynamic light scattering” deals with the molecule itself. Put plainly: dynamic light scattering.

A word on the Kd: it is the equilibrium constant for the complex coming apart. Read a low Kd as tighter binding.

Histone-H1 (natural protein) had a Kd in series [1] of 2000 nM.

B1: heavy-chain (HC-) FSAP (residues 24-291) (domain or fragment)
chain: FSLMSLLESLDPDWTPDQYDYSYEDYNQEENTSSTLTHAENPDWYYTEDQADPCQPNPCEHGGDCLVHGSTFTCSCLAPFSGNKCQKVQNTCKDNPCGRGQCLITQSPPYYRCVCKHPYTGPSCSQVVPVCRPNPCQNGATCSRHKRRSKFTCACPDQFKGKFCEIGSDDCYVGDGYSYRGKMNRTVNQHACLYWNSHLLLQENYNMFMEDAETHGIGEHNFCRNPDADEKPWCFIKVTNDKVKWEYCDVSACSAQDVAYPEESPTEP
modifications: labelled with the Monolith protein labelling kit RED-NHS (in the MST only)
Take B1: in “dynamic light scattering”, the binding result is recorded as “binds”.
